According to article PMC7289602, “Measuring ligand-cell surface receptor affinities with axial line-scanning fluorescence correlation spectroscopy” (eLife, 2020):
One block for each molecule: values may come before it.

How the values were obtained:
[1] = target: LRP6-mCherry, stably expressed in NCI-H1703 cells (human) (UniProt O75581); assay: dual-color axial line-scanning fluorescence cross-correlation spectroscopy (axial lsFCS); two receptors in the plasma membrane of live NCI-H1703 cells stably expressing LRP6-mCherry and transiently xKremen2-eGFP; fractions that co-diffuse from the ratios of cross- and autocorrelation amplitudes
[2] = target: T1, LRP6-mCherry, stably expressed in NCI-H1703 cells (human, UniProt O75581 20-1613); assay: dual-color axial line-scanning fluorescence cross-correlation spectroscopy (axial lsFCS); live NCI-H1703 cells stably expressing LRP6-mCherry, ligand in conditioned medium at varied concentrations, 37°C, 5% CO2, 60 s scans, with background and photobleaching correction, fit of Γ(CL) with Equation 5; conditions: partners not purified
T1 construct: lipoprotein-receptor related protein 6 (LRP6), human; the ORF of the hLRP6-mCherry fusion inserted into pEF1a-IRES-Neo; Same fusion ORF as m4 and m5; receptor density 45 ± 23 per µm^2; also called hLRP6-mCherry; exogenous LRP6-mCherry; source: NCI-H1703, stably transfected clonal line (pEF1a-hLRP6-mCherry-IRES-Neo, G418 selection), on live cells; not shown: mCherry, C-terminal, kept

[3] = target: T1, LRP6-mCherry, stably expressed in …; assay: as above; conditions: partners not purified; remark: listed apart in the source
[4] = target: T2, LRP6-mCherry, transiently expressed in HEK293T cells (human, UniProt O75581 20-1613); assay: time-lapse spinning disk confocal imaging of ligand fluorescence on the cell membrane; association: HEK293T cells expressing LRP6-mCherry, conditioned medium with DKK1-eGFP at different concentrations, 37°C, 5% CO2, frames every 100 s for 1 hr, linear regression of apparent rate coefficients; the authors call such measurements on individual cells highly unreliable; conditions: partners not purified
T2 construct: lipoprotein-receptor related protein 6 (LRP6), human; plasmid pCS2+hLRP6-mCherry (Dörlich et al., 2015); Receptor density 370 ± 150 or 1080 ± 470 per µm^2 in the two series; MesD was co-transfected; also called hLRP6-mCherry; lipoprotein-receptor related protein 6; source: HEK293T, transiently transfected (pCS2+hLRP6-mCherry, with MesD 1:6), on live cells; not shown: mCherry, C-terminal, kept

[5] = target: T3, endogenously tagged LRP6-mCherry in CRISPR/Cas9 edited NCI-H1703 cells (human (endogenous in NCI-H1703), UniProt O75581 20-1613); assay: dual-color axial line-scanning fluorescence cross-correlation spectroscopy (axial lsFCS); live CRISPR/Cas9 edited NCI-H1703 cells with endogenously tagged LRP6, ligand in conditioned medium at varied concentrations, 37°C, 5% CO2, 60 s scans, fit of Γ(CL) with Equation 5; conditions: partners not purified
T3 construct: lipoprotein-receptor related protein 6 (LRP6), human, expressed from the endogenous locus of NCI-H1703 cells; Untagged LRP6 from the unedited allele is also present; receptor density 18 ± 9 per µm^2; source: NCI-H1703, CRISPR/Cas9 edited at the endogenous LRP6 locus (exon 23), heterozygous clone, on live cells

[6] = target: T4, endogenously tagged LRP6-tdTomato in CRISPR/Cas9 edited NCI-H1703 cells (human (endogenous in NCI-H1703), UniProt O75581 20-1613); assay: as above; conditions: partners not purified
T4 construct: lipoprotein-receptor related protein 6 (LRP6), human, expressed from the endogenous locus of NCI-H1703 cells; Untagged LRP6 from the unedited allele is also present; receptor density 21 ± 15 per µm^2; source: NCI-H1703, CRISPR/Cas9 edited at the endogenous LRP6 locus (exon 23), heterozygous clone, on live cells; not shown: tdTomato (after the linker AS from the NheI site), C-terminal, kept

[7] = target: T5, LRP6-tdTomato, transiently expressed in NCI-H1703 cells (human, UniProt O75581 20-1613); assay: dual-color axial line-scanning fluorescence cross-correlation spectroscopy (axial lsFCS); live NCI-H1703 cells transiently expressing the receptor (xKremen2-mCherry without or with unlabeled LRP6; apparent affinity with LRP6), ligand in conditioned medium at varied concentrations, 37°C, 5% CO2, 60 s scans, fit of Γ(CL) with Equation 5; conditions: partners not purified
T5 construct: lipoprotein-receptor related protein 6 (LRP6), human; pCS2+hLRP6-tdTomato, made by replacing the mCherry ORF of pCS2+hLRP6-mCherry; Receptor density 106 ± 52 per µm^2; also called hLRP6-tdTomato; source: NCI-H1703, transiently transfected (pCS2+hLRP6-tdTomato, with MesD 1:6), on live cells; not shown: tdTomato, C-terminal, kept

[8] = target: T2, LRP6-mCherry, transiently expressed in …; assay: time-lapse spinning disk confocal imaging of ligand fluorescence on the cell membrane; dissociation after two washing steps, frames every 300 s for up to 3 hr, average of 50 cells; kon from a regression of apparent rate coefficients at 3.5 and 7 nM with this koff fixed; 37°C, 5% CO2; conditions: partners not purified
[9] = target: xKremen2-mCherry co-expressed with unlabeled LRP6 (Xenopus laevis | human) (UniProt O75581); assay: dual-color axial line-scanning fluorescence cross-correlation spectroscopy (axial lsFCS); live NCI-H1703 cells transiently expressing the receptor (xKremen2-mCherry without or with unlabeled LRP6; apparent affinity with LRP6), ligand in conditioned medium at varied concentrations, 37°C, 5% CO2, 60 s scans, fit of Γ(CL) with Equation 5
[10] = target: (Xenopus laevis) xKremen2-mCherry (Xenopus laevis); assay: as above
[11] = target: T1, LRP6-mCherry, stably expressed in …; assay: dual-color axial line-scanning fluorescence cross-correlation spectroscopy (axial lsFCS); the same data as a3 (NCI-H1703 stably expressing LRP6-mCherry), analysed without prior background correction of the intensity time traces; conditions: partners not purified
[12] = target: T6, LRP6-mCherry, transiently expressed in NCI-H1703 cells (human, UniProt O75581 20-1613); assay: dual-color axial line-scanning fluorescence cross-correlation spectroscopy (axial lsFCS); live NCI-H1703 cells transiently expressing the receptor (xKremen2-mCherry without or with unlabeled LRP6; apparent affinity with LRP6), ligand in conditioned medium at varied concentrations, 37°C, 5% CO2, 60 s scans, fit of Γ(CL) with Equation 5; conditions: partners not purified
T6 construct: lipoprotein-receptor related protein 6 (LRP6), human; plasmid pCS2+hLRP6-mCherry (Dörlich et al., 2015); Same construct as m4 in another cell line; receptor density 140 ± 80 per µm^2; also called hLRP6-mCherry; source: NCI-H1703, transiently transfected (pCS2+hLRP6-mCherry, with MesD 1:6), on live cells; not shown: mCherry, C-terminal, kept

[13] = target: T2, LRP6-mCherry, transiently expressed in …; assay: dual-color axial line-scanning fluorescence cross-correlation spectroscopy (axial lsFCS); live HEK293T cells transiently expressing the receptor, ligand in conditioned medium at varied concentrations (0.01-220 nM), 37°C, 5% CO2, 60 s scans, fit of Γ(CL) with Equation 5; conditions: partners not purified

T1 sequence (O75581 20-1613): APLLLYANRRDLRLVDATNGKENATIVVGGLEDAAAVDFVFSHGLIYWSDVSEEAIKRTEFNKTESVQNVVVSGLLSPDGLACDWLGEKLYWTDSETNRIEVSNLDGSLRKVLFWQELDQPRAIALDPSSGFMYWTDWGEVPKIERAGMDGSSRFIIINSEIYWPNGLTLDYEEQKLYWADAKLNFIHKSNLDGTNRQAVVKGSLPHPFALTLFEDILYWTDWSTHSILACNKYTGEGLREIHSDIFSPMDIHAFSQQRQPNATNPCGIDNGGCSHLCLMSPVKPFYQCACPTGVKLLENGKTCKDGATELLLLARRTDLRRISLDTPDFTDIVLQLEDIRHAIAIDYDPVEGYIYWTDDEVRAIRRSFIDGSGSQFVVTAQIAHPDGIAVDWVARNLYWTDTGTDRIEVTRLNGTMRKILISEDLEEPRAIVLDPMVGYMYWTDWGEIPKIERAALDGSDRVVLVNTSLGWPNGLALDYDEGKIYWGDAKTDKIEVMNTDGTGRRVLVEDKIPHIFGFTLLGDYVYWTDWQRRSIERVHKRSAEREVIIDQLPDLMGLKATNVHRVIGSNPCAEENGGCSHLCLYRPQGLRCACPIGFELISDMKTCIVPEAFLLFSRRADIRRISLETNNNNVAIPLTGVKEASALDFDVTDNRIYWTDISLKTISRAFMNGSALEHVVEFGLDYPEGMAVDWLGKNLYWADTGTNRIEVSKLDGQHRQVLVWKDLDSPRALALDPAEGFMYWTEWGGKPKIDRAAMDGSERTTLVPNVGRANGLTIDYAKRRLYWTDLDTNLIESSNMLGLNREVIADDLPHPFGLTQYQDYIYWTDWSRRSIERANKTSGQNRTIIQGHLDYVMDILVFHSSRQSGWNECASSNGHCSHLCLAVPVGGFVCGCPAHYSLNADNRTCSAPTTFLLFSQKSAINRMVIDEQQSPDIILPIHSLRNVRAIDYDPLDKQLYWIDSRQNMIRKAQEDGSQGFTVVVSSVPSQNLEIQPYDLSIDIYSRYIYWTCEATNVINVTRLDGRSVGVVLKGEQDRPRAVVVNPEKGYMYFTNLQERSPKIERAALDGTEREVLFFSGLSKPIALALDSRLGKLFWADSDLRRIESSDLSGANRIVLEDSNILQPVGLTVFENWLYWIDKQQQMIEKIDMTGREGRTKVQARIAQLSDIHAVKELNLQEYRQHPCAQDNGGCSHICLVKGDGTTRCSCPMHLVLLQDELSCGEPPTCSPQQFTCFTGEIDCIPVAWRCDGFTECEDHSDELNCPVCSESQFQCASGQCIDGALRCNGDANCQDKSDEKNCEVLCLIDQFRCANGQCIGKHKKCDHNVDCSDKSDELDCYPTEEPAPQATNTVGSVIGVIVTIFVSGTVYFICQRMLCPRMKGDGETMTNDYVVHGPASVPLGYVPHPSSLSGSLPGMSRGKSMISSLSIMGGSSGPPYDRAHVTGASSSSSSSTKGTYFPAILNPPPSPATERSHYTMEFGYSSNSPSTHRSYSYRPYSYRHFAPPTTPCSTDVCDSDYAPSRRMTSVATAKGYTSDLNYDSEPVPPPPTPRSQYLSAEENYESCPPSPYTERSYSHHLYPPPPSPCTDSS
Chain of LRP6-mCherry, stably expressed in NCI-H1703 cells (human) (O75581 20-1613): as above
T2 sequence (O75581 20-1613): as above
T5 sequence (O75581 20-1613): as above
T3 sequence (O75581 20-1613): as above
T4 sequence (O75581 20-1613): as above
T6 sequence (O75581 20-1613): as above

Molecule: (Xenopus laevis) xKremen2-eGFP (receptor)
bound fraction of LRP6 receptors FR, corrected assuming an eGFP maturation yield of 0.9 [1]: 0.26 | bound fraction of xKremen2 receptors FG, corrected assuming an mCherry maturation yield of 0.5 [1]: 0.18 | percent of LRP6 receptors co-diffusing with xKremen2 [1]: 25% | percent of xKremen2 receptors co-diffusing with LRP6 [1]: 15%

B3: human Dickkopf1 fused to eGFP and a SNAP-tag domain (DKK1-eGFP-SNAP) (ligand, UniProt O94907 32-266, looked up)
chain: TLNSVLNSNAIKNLPPPLGGAAGHPGSAVSAAPGILYPGGNKYQTIDNYQPYPCAEDEECGTDEYCASPTRGGDAGVQICLACRKRRKRCMRHAMCCPGNYCKNGICVSSDQNHFRGEIEETITESFGNDHSTLDGYSRRTTLSSKMYHTKGQEGSVCLRSSDCASGLCCARHFWSKICKPVLKEGQVCTKHRRKGSHGLEIFQRCYCGEGLSCRIQKDHHQASNSSRLHTCQRH
notes: Dickkopf1 (DKK1), human; made from pCS2+hDKK1-eGFP by adding a linker and the SNAP-tag gene; SNAP-tag domain is 19.4 kDa; also called hDKK1-eGFP-SNAP; source: conditioned medium
Kd [13]: 0.46 ± 0.09 nM

Second part, the molecule after the results:

Kd [2]: 0.26 ± 0.04 nM
B1: human Dickkopf2 fused to eGFP (DKK2-eGFP) (ligand, UniProt Q9UBU2 34-259, looked up)
chain: KLNSIKSSLGGETPGQAANRSAGMYQGLAFGGSKKGKNLGQAYPCSSDKECEVGRYCHSPHQGSSACMVCRRKKKRCHRDGMCCPSTRCNNGICIPVTESILTPHIPALDGTRHRDRNHGHYSNHDLGWQNLGRPHTKMSHIKGHEGDPCLRSSDCIEGFCCARHFWTKICKPVLHQGEVCTKQRKKGSHGLEIFQRCDCAKGLSCKVWKDATYSSKARLHVCQKI
notes: Dickkopf2 (DKK2), human; also called hDKK2-eGFP

Kd [3]: 0.08 ± 0.01 nM | Kd [4]: 2.6 ± 0.1 nM | koff [4]: 0.0013 s⁻¹ | kon [4]: 500000 M⁻¹ s⁻¹ | Kd [5]: 0.09 ± 0.01 nM | Kd [6]: 0.1 ± 0.02 nM | Kd [7]: 0.22 ± 0.03 nM | Kd [8]: 0.4 ± 0.1 nM | koff [8]: 0.00026 s⁻¹ | kon [8]: 670000 M⁻¹ s⁻¹ | Kd [9]: 0.54 nM | Kd [10]: 10.3 nM | Kd [11]: 0.1 ± 0.02 nM | Kd [12]: 0.22 ± 0.02 nM | Kd [13]: 0.49 ± 0.09 nM
B2: human Dickkopf1 fused to eGFP (DKK1-eGFP) (ligand, UniProt O94907 32-266, looked up)
chain: TLNSVLNSNAIKNLPPPLGGAAGHPGSAVSAAPGILYPGGNKYQTIDNYQPYPCAEDEECGTDEYCASPTRGGDAGVQICLACRKRRKRCMRHAMCCPGNYCKNGICVSSDQNHFRGEIEETITESFGNDHSTLDGYSRRTTLSSKMYHTKGQEGSVCLRSSDCASGLCCARHFWSKICKPVLKEGQVCTKHRRKGSHGLEIFQRCYCGEGLSCRIQKDHHQASNSSRLHTCQRH
notes: Dickkopf1 (DKK1), human; also called hDKK1-eGFP
